Data: article PMC6628147
Where “and” joins values, the source holds several entries; their conditions need not be identical. Identical values can stand only once.

Columns and labels:
Assay in all cases: EMSA
Settings in all cases: EMSA: 1 nM 6-FAM DNA, 0-1.28 uM protein, 1 h at 37 C, binding buffer not stated; 6% PAGE in 40 mM Tris pH 7.6, 20 mM acetic acid, 1 mM EDTA at 4 C (effectors …)
[1] = tested on: CatM(I18F,K38N)-His (Acinetobacter baylyi ADP1)
[2] = tested on: CatM-His (Acinetobacter baylyi ADP1)
[3] = tested on: BenM-DBDCatM(F293Y,H160R)-His (Acinetobacter baylyi ADP1)
[4] = tested on: BenM-DBDCatM-His (Acinetobacter baylyi ADP1)

| Substance | Kd [1] | Kd [2] | Kd [3] | Kd [4] |
| --- | --- | --- | --- | --- |
| PbenA operator-promoter | 42 nM and 32 nM (2×) and 34 nM | 70 nM and 71 nM (2×) and 67 nM | 1 nM and 4 nM (2×) and 2 nM |  |
| PcatB operator-promoter |  | 11 nM and 19 nM (2×) and 10 nM | 3 nM | 1 nM and 3 nM (2×) and 4 nM |
